For two molecules, interaction score results are on record in paper PMC10397247.

In one assay the target is T1, O3.
T1 chain: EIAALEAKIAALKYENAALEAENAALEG
Description: two-hybrid library CC0.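 Further: natural log of median RNA to DNA barcode read ratio; higher means stronger binding.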 Conditions: mean of both orientations.

In a further assay the target is T2, O13.
T2 chain: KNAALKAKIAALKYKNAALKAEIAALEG
Description: two-hybrid library CC0.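 Further: natural log of median RNA to DNA barcode read ratio; higher means stronger binding.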 Conditions: mean of both orientations.

The target in another assay is T3, O12.
T3 chain: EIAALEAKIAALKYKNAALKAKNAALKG
In words: two-hybrid library CC0.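 Further: natural log of median RNA to DNA barcode read ratio; higher means stronger binding.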 Conditions: mean of both orientations.

A further assay addresses T4, O5.
T4 chain: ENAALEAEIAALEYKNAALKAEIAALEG
Description: two-hybrid library CC0.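 Further: natural log of median RNA to DNA barcode read ratio; higher means stronger binding.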 Conditions: mean of both orientations.

A further assay addresses T5, O6.
T5 chain: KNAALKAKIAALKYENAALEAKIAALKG
Description: two-hybrid library CC0. Conditions: mean of both orientations.

A further assay has as its target T6, O2.
T6 chain: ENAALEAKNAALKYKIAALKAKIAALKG
Description: two-hybrid library CC0. Conditions: mean of both orientations.

A further assay deals with T7, O8.
T7 chain: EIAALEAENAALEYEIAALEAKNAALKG
Description: two-hybrid library CC0. Conditions: mean of both orientations.

A further assay concerns the target T8, O15.
T8 chain: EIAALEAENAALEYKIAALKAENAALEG
In words: two-hybrid library CC0. Conditions: mean of both orientations.

The target of a further assay is T9, O11.
T9 chain: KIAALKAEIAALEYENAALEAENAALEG
In words: two-hybrid library CC0. Conditions: mean of both orientations.

The target in a further assay is T10, O4.
T10 chain: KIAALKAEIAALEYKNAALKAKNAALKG
In words: two-hybrid library CC0. Conditions: mean of both orientations.

In the next assay the target is T11, O14.
T11 chain: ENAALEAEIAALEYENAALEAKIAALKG
In words: two-hybrid library CC0. Conditions: mean of both orientations.

Another assay has as its target T12, O10.
T12 chain: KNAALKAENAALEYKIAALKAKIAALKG
In words: two-hybrid library CC0. Conditions: mean of both orientations.

The target of a further assay is T13, O7.
T13 chain: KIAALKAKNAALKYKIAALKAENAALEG
In words: two-hybrid library CC0. Conditions: mean of both orientations.

Another assay has as its target T14, O16.
T14 chain: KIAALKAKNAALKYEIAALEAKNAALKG
In words: two-hybrid library CC0. Conditions: mean of both orientations.

The next assay concerns the target T15, O9.
T15 chain: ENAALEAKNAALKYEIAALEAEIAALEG
Description: two-hybrid library CC0. Conditions: mean of both orientations.

For the next assay, the target named is T16, 4H1710-AA.
T16 chain: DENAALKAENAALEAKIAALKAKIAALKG
In words: two-hybrid library CCmax. Conditions: mean of both orientations.

The target of a further assay is T17, 4H3409-AA.
T17 chain: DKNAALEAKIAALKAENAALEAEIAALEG
Description: two-hybrid library CCmax. Conditions: mean of both orientations.

A further assay addresses T18, 4H2646-AA.
T18 chain: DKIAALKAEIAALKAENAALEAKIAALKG
Description: two-hybrid library CCmax. Conditions: mean of both orientations.

For another assay, the target named is T19, 4H2512-AA.
T19 chain: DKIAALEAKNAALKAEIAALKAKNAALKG
In words: two-hybrid library CCmax. Conditions: mean of both orientations.

In a further assay the target is T20, 4H87-AA.
T20 chain: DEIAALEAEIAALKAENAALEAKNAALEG
Description: two-hybrid library CCmax. Conditions: mean of both orientations.

For another assay, the target named is T21, 4H278-AA.
T21 chain: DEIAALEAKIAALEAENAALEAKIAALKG
Description: two-hybrid library CCmax. Conditions: mean of both orientations.

The next assay deals with T22, 4H2705-AA.
T22 chain: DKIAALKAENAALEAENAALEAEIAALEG
In words: two-hybrid library CCmax. Conditions: mean of both orientations.

In another assay the target is T23, 4H1350-AA.
T23 chain: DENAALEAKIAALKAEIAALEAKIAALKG
Description: two-hybrid library CCmax. Conditions: mean of both orientations.

The target in a further assay is T24, 4H775-AA.
T24 chain: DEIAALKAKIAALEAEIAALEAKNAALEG
Description: two-hybrid library CCmax. Conditions: mean of both orientations.

The target of the next assay is T25, 4H3134-AA.
T25 chain: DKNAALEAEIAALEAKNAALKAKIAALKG
Description: two-hybrid library CCmax. Conditions: mean of both orientations.

For another assay, the target named is T26, 4H2758-AA.
T26 chain: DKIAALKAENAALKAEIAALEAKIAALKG
Description: two-hybrid library CCmax. Conditions: mean of both orientations.

The target in a further assay is T27, 4H390-AA.
T27 chain: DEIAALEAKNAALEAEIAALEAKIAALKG
Description: two-hybrid library CCmax. Conditions: mean of both orientations.

Another assay has as its target T28, 4H2873-AA.
T28 chain: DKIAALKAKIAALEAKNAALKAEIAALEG
In words: two-hybrid library CCmax. Conditions: mean of both orientations.

Another assay concerns the target T29, 4H2687-AA.
T29 chain: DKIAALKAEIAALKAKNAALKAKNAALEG
Description: two-hybrid library CCmax. Conditions: mean of both orientations.

A further assay addresses T30, 4H1985-AA.
T30 chain: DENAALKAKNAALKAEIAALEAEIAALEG
In words: two-hybrid library CCmax. Conditions: mean of both orientations.

The next assay addresses T31, 4H3940-AA.
T31 chain: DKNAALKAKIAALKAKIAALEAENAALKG
In words: two-hybrid library CCmax. Conditions: mean of both orientations.

The next assay deals with T32, 4H233-AA.
T32 chain: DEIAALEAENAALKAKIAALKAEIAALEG
In words: two-hybrid library CCmax. Conditions: mean of both orientations.

A further assay concerns the target T33, 4H510-AA.
T33 chain: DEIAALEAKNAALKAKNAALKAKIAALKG
In words: two-hybrid library CCmax. Conditions: mean of both orientations.

A further assay deals with T34, 4H3625-AA.
T34 chain: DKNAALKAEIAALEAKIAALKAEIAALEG
In words: two-hybrid library CCmax. Conditions: mean of both orientations.

In the next assay the target is T35, 4H2187-AA.
T35 chain: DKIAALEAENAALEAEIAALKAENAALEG
In words: two-hybrid library CCmax. Conditions: mean of both orientations.

In another assay the target is T36, 4H121-AA.
T36 chain: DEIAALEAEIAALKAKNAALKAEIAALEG
In words: two-hybrid library CCmax.

The target in another assay is T37, 4H2985-AA.
T37 chain: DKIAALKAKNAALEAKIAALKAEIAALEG
In words: two-hybrid library CCmax. Conditions: mean of both orientations.

The target in the next assay is T38, 4H816-AA.
T38 chain: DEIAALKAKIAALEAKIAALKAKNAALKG
In words: two-hybrid library CCmax. Conditions: mean of both orientations.

For the molecule KNAALKAENAALEYKIAALKAKIAALKG [O10], the interaction score with O3 was -2.6; in the assay with O13, -2.76; with O12 it was -2.82; in the assay with O5 it was -1.82; with O6, -2.76; with O2, -1.28. In addition, the interaction score with O8 is -2.5; with O15, -2.76; with O11 it was -2.65; with O4 it was -2.63; in the assay with O14, -2.57; with O10, -2.67. For the same molecule, the interaction score was -2.72 in the assay with O7, -2.56 with O16 and 1.47 with O9.

On to DEIAALEAEIAALKAKNAALKAEIAALEG [4H121-AA], for which the interaction score with 4H1710-AA was 0.228; in the assay with 4H3409-AA it was 0.672; with 4H2646-AA it was 2.21; with 4H2512-AA, -1.66; with 4H87-AA, 0.81; with 4H278-AA it was 2.13. Also, the interaction score with 4H2705-AA is 0.603; with 4H1350-AA, 0.484; with 4H775-AA it was -0.904; with 4H3134-AA, 0.777; with 4H2758-AA, 0.775; with 4H390-AA, 1.2. Further, the interaction score was 0.239 with 4H2873-AA; -0.303 with 4H2687-AA; -1.39 with 4H1985-AA; -0.784 with 4H3940-AA; -0.289 with 4H233-AA; -1.47 with 4H510-AA. Further, the interaction score was -0.876 with 4H3625-AA; -0.0331 in the assay with 4H2187-AA; 0.829 with 4H121-AA; 0.209 in the assay with 4H2985-AA; -0.458 in the assay with 4H816-AA.
